This is an account of results in patent US7115410.

The target of series [1] is MBP-C125 (maltose-binding protein fused to the last 125 amino acids of APP), P05067.
Series [2] concerns the target MBP-C125sw (maltose-binding protein fused to the last 125 amino acids of APP, Swedish double mutation) [MBP: P0AEX9].
In series [3] the target is APP 751 with the Swedish mutation (APPsw), P05067.
Series [4] addresses APP 751 wild type (expressed from pohCK751), P05067.
Series [5] deals with T1, P26-P4′sw substrate ((biotin)CGGADRGLTTRPGSGLTNIKTEEISEVNLDAEF) (not fully specified).
T1 chain: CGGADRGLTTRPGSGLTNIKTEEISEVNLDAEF

Chain of MBP-C125 (maltose-binding protein fused to the last 125 amino acids of APP), P05067 (P05067 whole entry, looked up, the tested form may be a part): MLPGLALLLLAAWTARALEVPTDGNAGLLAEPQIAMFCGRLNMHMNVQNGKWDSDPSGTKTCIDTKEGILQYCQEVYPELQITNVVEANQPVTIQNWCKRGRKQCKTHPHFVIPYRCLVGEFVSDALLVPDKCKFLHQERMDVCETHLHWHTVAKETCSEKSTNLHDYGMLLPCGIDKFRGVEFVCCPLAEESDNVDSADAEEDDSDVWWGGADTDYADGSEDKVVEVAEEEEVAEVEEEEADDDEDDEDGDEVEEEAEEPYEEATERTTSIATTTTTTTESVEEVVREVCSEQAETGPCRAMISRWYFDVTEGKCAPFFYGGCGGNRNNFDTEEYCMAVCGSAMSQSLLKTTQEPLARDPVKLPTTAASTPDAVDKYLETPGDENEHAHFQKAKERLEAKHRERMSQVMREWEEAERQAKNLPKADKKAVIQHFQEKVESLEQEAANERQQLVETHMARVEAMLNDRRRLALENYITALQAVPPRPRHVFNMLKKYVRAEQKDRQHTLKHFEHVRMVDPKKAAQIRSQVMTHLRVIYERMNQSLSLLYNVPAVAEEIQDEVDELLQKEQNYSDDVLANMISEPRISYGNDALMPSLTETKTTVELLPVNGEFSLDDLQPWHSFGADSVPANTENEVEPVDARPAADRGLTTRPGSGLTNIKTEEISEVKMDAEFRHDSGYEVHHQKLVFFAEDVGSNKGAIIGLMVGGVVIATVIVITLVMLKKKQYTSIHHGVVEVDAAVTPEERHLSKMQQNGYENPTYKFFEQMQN
Chain of APP 751 wild type (expressed from pohCK751), P05067 (P05067 whole entry, looked up): as the sequence (P05067 whole entry, looked up, the tested form may be a part) above
Chain of APP 751 with the Swedish mutation (APPsw), P05067 (P05067 whole entry, looked up, change not shown): as the sequence (P05067 whole entry, looked up, the tested form may be a part) above

B1: FLp501 (full length recombinant β-secretase having a C-terminal flag sequence) (protein)
chain: TQHGIRLPLRSGLGGAPLGLRLPRETDEEPEEPGRRGSFVEMVDNLRGKSGQGYYVEMTVGSPPQTLNILVDTGSSNFAVGAAPHPFLHRYYQRQLSSTYRDLRKGVYVPYTQGKWEGELGTDLVSIPHGPNVTVRANIAAITESDKFFINGSNWEGILGLAYAEIARPDDSLEPFFDSLVKQTHVPNLFSLQLCGAGFPLNQSEVLASVGGSMIIGGIDHSLYTGSLWYTPIRREWYYEVIIVRVEINGQDLKMDCKEYNYDKSIVDSGTTNLRLPKKVFEAAVKSIKAASSTEKFPDGFWLGEQLVCWQAGTTPWNIFPVISLYLMGEVTNQSFRITILPQQYLRPVEDVATSQDDCYKFAISQSSTGTVMGAVIMEGFYVVFDRARKRIGFAVSACHVHDEFRTAAVEGPFVTLDMEDCGYNIPQTDESTLMTIAYVMAAICALFMLPLCLMVCQWRCLRCLRQQHDDFADDISLLKDYKDDDDK
With B1, the cleavage of substrate entry in series [1] is given as “Both enzymes exhibited activity in cleaving β-secretase substrates such as MBP-C125”.

B2: β-secretase purified from human brain (naturally occurring) (protein)
chain: ETDEEPEEPGRRGSFVEMVDNLRGKSGQGYYVEMTVGSPPQTLNILVDTGSSNFAVGAAPHPFLHRYYQRQLSSTYRDLRKGVYVPYTQGKWEGELGTDLVSIPHGPNVTVRANIAAITESDKFFINGSNWEGILGLAYAEIARPDDSLEPFFDSLVKQTHVPNLFSLQLCGAGFPLNQSEVLASVGGSMIIGGIDHSLYTGSLWYTPIRREWYYEVIIVRVEINGQDLKMDCKEYNYDKSIVDSGTTNLRLPKKVFEAAVKSIKAASSTEKFPDGFWLGEQLVCWQAGTTPWNIFPVISLYLMGEVTNQSFRITILPQQYLRPVEDVATSQDDCYKFAISQSSTGTVMGAVIMEGFYVVFDRARKRIGFAVSACHVHDEFRTAAVEGPFVTLDMEDCGYNIPQTDESTLMTIAYVMAAICALFMLPLCLMVCQWRCLRCLRQQHDDFADDISLLK
Consider B2, for which, in series [2], the Specific Activity (MBP-C125sw assay), Affinity Eluate (nM/h/µg prot.) amounted to 258000 and the Specific Activity (MBP-C125sw assay), Anion Exchange Pool (nM/h/µg prot.) is 1.49e+06.

B3: full length β-secretase (clone 27; 1-501) (protein)
chain: TQHGIRLPLRSGLGGAPLGLRLPRETDEEPEEPGRRGSFVEMVDNLRGKSGQGYYVEMTVGSPPQTLNILVDTGSSNFAVGAAPHPFLHRYYQRQLSSTYRDLRKGVYVPYTQGKWEGELGTDLVSIPHGPNVTVRANIAAITESDKFFINGSNWEGILGLAYAEIARPDDSLEPFFDSLVKQTHVPNLFSLQLCGAGFPLNQSEVLASVGGSMIIGGIDHSLYTGSLWYTPIRREWYYEVIIVRVEINGQDLKMDCKEYNYDKSIVDSGTTNLRLPKKVFEAAVKSIKAASSTEKFPDGFWLGEQLVCWQAGTTPWNIFPVISLYLMGEVTNQSFRITILPQQYLRPVEDVATSQDDCYKFAISQSSTGTVMGAVIMEGFYVVFDRARKRIGFAVSACHVHDEFRTAAVEGPFVTLDMEDCGYNIPQTDESTLMTIAYVMAAICALFMLPLCLMVCQWRCLRCLRQQHDDFADDISLLK
Take B3: the “Aβ(x-40) production (ELISA of conditioned media)” value was “approximate 2-fold increase in Aβ(x-40)” in series [3] and “approximately 8-fold increase in Aβ(x-40) production” in series [4].

B4: 452stop (recombinant β-secretase extending from position 1 to 452) (protein)
chain: TQHGIRLPLRSGLGGAPLGLRLPRETDEEPEEPGRRGSFVEMVDNLRGKSGQGYYVEMTVGSPPQTLNILVDTGSSNFAVGAAPHPFLHRYYQRQLSSTYRDLRKGVYVPYTQGKWEGELGTDLVSIPHGPNVTVRANIAAITESDKFFINGSNWEGILGLAYAEIARPDDSLEPFFDSLVKQTHVPNLFSLQLCGAGFPLNQSEVLASVGGSMIIGGIDHSLYTGSLWYTPIRREWYYEVIIVRVEINGQDLKMDCKEYNYDKSIVDSGTTNLRLPKKVFEAAVKSIKAASSTEKFPDGFWLGEQLVCWQAGTTPWNIFPVISLYLMGEVTNQSFRITILPQQYLRPVEDVATSQDDCYKFAISQSSTGTVMGAVIMEGFYVVFDRARKRIGFAVSACHVHDEFRTAAVEGPFVTLDMEDCGYNIPQTDEDYKDDDDK
B4: the cleavage of substrate entry in series [5] is reported as “exhibited activity in cleaving the MBP-C125sw substrate as well as the P26-P4′ substrate”; in series [1] it was “Both enzymes exhibited activity in cleaving β-secretase substrates such as MBP-C125”; in series [2] it was “exhibited activity in cleaving the MBP-C125sw substrate”.
